Test results from the DeepSol protein solubility set.

Assay: soluble on expression in E. coli; label from the status in PepcDB or PDB records

| Sequence | soluble on expression in E. coli |
| --- | --- |
| MGSDKIHHHHHHMNKNMIKGMIVFAAIAEKGSMSAAAQQLNLSSSAVSQQVTKLEMDMGISLFHRNTRNLTLTEAGSLFYENCRKVIAIVESTEQKLNNLKGIPSGELKIAAPIGFGGGLLSEPFNYLLAAHPQISLNLLLQDGPIDIVNEGIDLAICIGPLSDSNLIARHLADWRMLLCASPDYLPMHKIFKHPAELAAFNRINHPCANSETLTHVRNKECFELTSQRITVNNMQALIQLTLDGLGFAALPEPEVHKYLESGQLVTLLPEWSLNTYSVYSVTSARDKQPAKVKEALNTLSQYFSQANFNPAYHFKQCVQKDGTKGSVTNILPIKPKQASHHADVDHAS | not soluble |
| MPKEWLAEDLSEQYVADYKAFNFVDGEGVRCSLYLSGCPFHCPGCYNVAAQNFHYGQPYSQELEDQIIEDLGQDYVQGLTLLGGEPFLNTQVGIRICERIRSEFGNTKDIWSWSGYTWEELQQDSEDKLKMLSLIDILVDGRFLQDKMDLSLQFRGSSNQRIIDVPKSLTAGKVVIWDKLVKLEHHHHHH | soluble |
| TSKATIRDLNDPSQVKTLQEKASKGAGTVVAVIDAGFDKNHEAWRLTDKTKARYQSKEDLEKAKKEHGITYGEWVNDKVAYYHDYSKDGKTAVDQEHGTHVSGILSGNAPSETKEPYRLEGAMPEAQLLLMRVEIVNGLADYARNYAQAIRDAVNLGAKVINMSFGNAALAYANLPDETKKAFDYAKSKGVSIVTSAGNDSSFGGKTRLPLADHPDYGVVGTPAAADSTLTVASYSPDKQLTETATVKTDDHQAKEMPVLSTNRFEPNKAYDYAYANRGMKEDDFKDVKGKIALIERGDIDFKDKIANAKKAGAVGVLIYDNQDKGFPIELPNVDQMPAAFISRKDGLLLKDNSKKTITFNATPKVLPTASDTKLSRFSSWGLTADGNIKPDIAAPGQDILSSVANNKYAKLSGTSMSAPLVAGIMGLLQKQYETQYPDMTPSERLDLAKKVLMSSATALYDEDEKAYFSPRQQGAGAVDAKKASAATMYVTDKDNTSSKVHLNNVSDKFEVTVTVHNKSDKPQELYYQATVQTDKVDGKHFALAPKALYETSWQKITIPANSSKQVTVPIDASRFSKDLLAQMKNGYFLEGFVRFKQDPKKEELMSIPYIGFRGDFGNLSALEKPIYDSKDGSSYYHEANSDAKDQLDGDGLQFYALKNNFTALTTESNPWTIIKAVKEGVENIEDIESSEITETIFAGTFAKQDDDSHYYIHRHANGKPYAAISPNGDGNRDYVQFQGTFLRNAKNLVAEVLDKEGNVVWTSEVTEQVVKNYNNDLASTLGSTRFEKTRWDGKDKDGKVVVNGTYTYRVRYTPISSGAKEQHTDFDVIVDNTTPEVATSATFSTEDRRLTLASKPKTSQPIYRERIAYTYMDEDLPTTEYISPNEDGTFTLPEEAETMEGGTVPLKMSDFTYVVEDMAGNITYTPVTKLLEGHS | soluble |
| GRSDTYDVLANRIENAVEQHRTEQRFWNALSWYQRLVEQELAGVCIIQDGTFVYVNQKLADIFSYDQSELIDESPALLTAEGDGDRLPESLRAADSDELDTFHSKFEGRQANGETRTIEVSGGSIEYDGEPAWIGVLRD | not soluble |
| MAHHHHHHMFCNLNVCLAFLSSQYGKENMNARKPLAVSAGTNSRSGEGDWKSTMRSFREGVRCLGEENEALRTVRSDLDAISRKLTEKMNSLVEENGSFHKSMSTLLDDERRKVSIITDQNENLLHKLEELRKEYDDANKEISRLTDLVHTEKSRNNSVVGLFEKKLAEKEDEYQTELRLREQSLEKLKTQLEEKCSAYEAQLTDRDNLLQTERCQWKLQKEVYEKEIERLLSQVGKFAITQRSSSQQSTLGVDVAHAKPPLAPVPPPAPTDEEGDRAVVKKRRLEAVRQQRRLKENDKNDI | not soluble |
| MKTYRIRKPKIVVVGGGTGLPVILKSLRNQSVDITAVVTVADDGGSSGELRSSINNMTPPGDLRNVLVALSDMPQLYEDIFQYRFDKSDSHFANHAIGNLIIAAVSEMRGSTYEAIQLLSKMMHVDGRIYPSSERPLTLHAVFKDGSVAVGESKIALDRKTIDHVFVTNTHGEEQPRAARKVVKAIEEADMVVLGPGSLFTSILPNLVITEIGEAIKQTAAEVVYICNIMTQKGETEHFTDADHVRVLNEHLQAQFVDTVLVNTEKVPENYMDPEIYDEYLVQVKHDFQGLREEGCRVISTDFLELRDGGVFHDGEKVVEELFRIVFGTKYLEHHHHHH | soluble |
| MKYIIIGLGNYGHVLAEELSTLGHEVIGADLDEGRVDSIKDKIATAFVIDATDEQSLSVLPLNSVDMVIVAIGENFGASIRVVAMLKQKQVKHIYARAIDGVHKAVLEAFGLEKILTPEEDAARSLVQLLDFGTKMETFRVDSEYYVVKFNVPEKFVGYFVNELNLDEEFNLKLIGLKRSNTIKNCLGISLVEHKVVNELPEDAKIRPDDVLVCYGKYSDFQKLWKALLEHHHHHH | soluble |
| MADKDTYTGFCIIKEGTKISKSGWEVLSFTTQEASGEGAGNGLAKCLIDGDTETFWHAKWQGGSDPLPYDIVIDMKQNIQIAQVELLPRGRGSNNPIKVVEFAASEDNVNWTPIGRFGFTNQDAALEYYVKSIKARYIRLTIPDDGGNSTVAAIRELDVKGTIINLEHHHHHH | soluble |
| GARNSVLRGKKADELERIRLRPGGKKKYRLKHIVWAANKLDRFGLAESLLESKEGCQKILTVLDPMVPTGSENLKSLFNTVCVIWCIHAEEKVKDTEGAKQIVRRHLVAETGTAEKMPSTSRPTAPSSEKGGNY | soluble |
| MIQKQHESKLEVGQTFPVTIKRLGINGEGVGYFKRQVVFIPGALPGEEVVAETTKIQRGFAEAKVKKVRKASPHRVKAPCPVYEECGGCQLQHLDYKEQLNQKRDIVVQAFEKYMKNSMEEKIRPTLGMENPWHYRNKSQLQVGRKDEKVITGLYKQNSHQLIDIAHCMIQHKATNEATKVVRRILEKLNVSIYNEKKQKGLVRTIVTRTAVQTGEVQVTLITTKEELPNKEQFIAEVQKQMPAVKSIMQNVNWRKTSVIFGDKTFKLAGKEVIQETLGDLSFELSARAFFQLNPEQTVVLYNEAKKAAALTGNEKIVDAYCGVGTIGLWLANDAAEVRGMDVIPEAIADARKNAKRHGFTNTKYEAGKAEQWLPKWVKEGWRPDVIVVDPPRTGCDDKLLETILKVKPKQVVYVSCNPSSLARDVQALMKSYEVEYVQPVDMFPHTAHVENVVKLTLK | not soluble |
| MKAVKPMTDNISVLIMGVDESEIRDKNYGKATRTDALLLATINKNDKSVKLVSIPRDSRVYIKSRDKYDKITHAHVFGGVDSTIDTVENFLDVPVDYYVKFNFKSFIKIVDSLGGITVDVPVEFTEQNSKDEADAVHLKKGRQHLNGEEALALARTRHIDSDYMRGQRQQLVLEAIAQKALSLNSINKIGGLLDAVDKDLKTNLTFDDMMTIAKNSMDSNLKMDKMQVEGTDKYIGGIYYYVPNEKSVNTISTTLQEHLGVTNKNEHKKLLEHHHHHH | soluble |
| MSLSPSPAIPSNTDYPGPHSFDVSFQQSSTAKSATWTYSTELKKLYCQIAKTCPIQIKVMTPPPQGAVIRAMPVYKKAEHVTEVVKRCPNHELSREFNEGQIAPPSHLIRVEGNSHAQYVEDPITGRQSVLVPYEPPQVGTEFTTVLYNFMCNSSCVGGMNRRPILIIVTLETRDGQVLGRRCFEARICACPGRDRKADEDSIRKQQVSDSTKNGDGTKRPFRQNTEGHHHHHH | soluble |
| HHHHHHSKEELLKLTETVVTEYLNSGNANEAVNGVREMRAPKHFLPEMLSKVIILSLDRSDEDKEKASSLISLLKQEGIATSDNFMQAFLNVLDQCPKLEVDIPLVKSYLAQFAARAIISELVSISELAQPLESGTHFPLFLLCLQQLAKLQDREWLTELFQQSKVNMQKMLPEIDQNKDRMLEILEGKGLSFLFPLLKLEKELLKQIKLDPSPQTIYKWIKDNISPKLHVDKGFVNILMTSFLQYISSEVNPPSDETDSSSAPSKEQLEQEKQLLLSFKPVMQKFLHDHVDLQVSALYALQVHCYNSNFPKGMLLRFFVHFYDMEIIEEEAFLAWKEDITQEFPGKGKALFQVNQWLTWLETA | soluble |
| MGSDKIHHHHHHMKYTELLQLQTFFSRFKKIDFIKRINDNILELSFDRERFIFDLTRAMSAIYTAKFNAKNYNAPFDFMLKKYFSNAFIKEVKVLEGNRILCFSVKANKAYKSYESKIYFEFTGKNTNVILTDEKDLIIEALRHIDKSYRVVKPNVILESLKPYKMDENFEEIKDFADYFSRKFTSIYESKIKQIKNLKLAQVDKKIQNLQELFSSLDEENSLLLKALEYRKRADVLFANLSVLKDYEREFKLDDFEGKELEFKLEFNPKQSANLYYKNAKKLEQKAKNLNIQRQNLKEKLDFTLSLKELLLQAKSEIELEILLPKKNSKKNQDHKQEDLVANFYFNEFKICVGKNEKGNEFLLKNAKKDDLWLHVRDIPSAHTLIVSNKQKISLDVIEFAARLCVSFSKLKKGSYWVDYTLKNFVKVQQKAFVNYTNFKSINITKD | not soluble |
| MGGWSNFKFLFLSPGGELYGVLNDKIYKGTPPTHDNDNWLGRAKKIGDGGWNQFQFLFFDPNGYLYAVSKDKLYKAPPPQSDTDNWIARATEIGSGG | soluble |
| MRRLGKQEIEDIAVGAALLGTGGGGDPYIGKLMALQAIEEYGPIQLLSVDEIDDEAVVVPSGMMGAPTVMIEKVPNGEEAIAAFQTLEQYLGKKIFATMPIEAGGINSLLPLALAARLGLPVVDVDGMGRAFPELQMVTFYLDGISATPLVIADEKGNHSVLNTVNNMWAERIARAATIQMGGSVMMAIYPMVGKQLKESGIHHILKLEEDIGRIIREAKGTNANPIAEVLSLVGGFELFKGKVVDINRKTESGFARGTAHIQGFDLYHDQTLEIKFQNEHLLAKTPDQLLCVTPDLIAILDSETGLPITTEGLKYGARCVVIGIPCHPKWRTAKGIETCGPAYFGYDVDYVPVENLVKEGAQTKLEHHHHHH | soluble |
| SLMKITRIEAIPYAIPYSRPLKFASGEVSTAEHVLVRIHTDAGICGVADTPPRPYTYGETQDSIVSVVTKVFAPQLIGMDPMDRSKVQQLLGRTVNNPTAKGALDIALWDVIGISLGTPVHKLLGGFSDSMRVSHMLGFKAAAELLEEALRFRETYGIDTFKLKVGRRPLSLDVEACHVLREGLGADTEIYLDANRGWTANEAMEVLRRTEGLGLSMLEEPCDAAEAMGRRRLVQHSSIPIVGDESVPNLGDVSRELLSGGSNAICIKTARSGFTEAQQILGLCEGLGVDVTMGNQIDTQVGSLATVTFGAAFEASSRRAGELSNYLDMTDDLLAEPLEITDGAIRVRKAPGVGAAIDADKLQKY | not soluble |
| MVKETKLYDLLGVSPSANEQELKKGYRKAALKYHPDKPTGDTEKFKEISEAFEILNDPQKREIYDQYGLEAARSGGPSFGPGGPGGAGGAGGFPGGAGGFSGGHAFSNEDAFNIFSQFFGGSSPFGGADDSGFSFSSYPSGGGAGMGGMPGGMGGMHGGMGGMPGGFRSASSSPTYPEEETVQVNLPVSLEDLFVGKKKSFKIGRKGPHGASEKTQIDIQLKPGWKAGTKITYKNQGDYNPQTGRRKTLQFVIQEKSHPNFKRDGDDLIYTLPLSFKESLLGFSKTIQTIDGRTLPLSRVQPVQPSQTSTYPGQGMPTPKNPSQRGNLIVKYKVDYPISLNDAQKRAIDENF | not soluble |
| MVVKEILRLLFLLAMYELGKYVTEQVYIMMTANDDVEAPSDYEKIRAEVSWLEHHHHHH | not soluble |
| MTEQLFDSLAKQNGFRVLSGGKYGGNNGFDHVWQAADGSVVLIVESKQIRNGTVQLNPNGAGGYTQMSREWIKQVVKSLPDGSPAKAVVLKANQNGKLKTAIAGVDRQTGKAVILSVKVPSKTNIRR | not soluble |
| MGSDKIHHHHHHMYLALIGDIINSKQILERETFQQSFQQLMTELSDVYGEELISPFTITAGDEFQALLKPSKKVFQIIDHIQLALKPVNVRFGLGTGNIITSINSNESIGADGPAYWHARSAINHIHDKNDYGTVQVAICLDDEDQNLELTLNSLISAGDFIKSKWTTNHFQMLEHLILQDNYQEQFQHQKLAQLENIEPSALTKRLKASGLKIYLRTRTQAADLLVKSCTQTKGGSYDF | not soluble |
